Consider three sequences from article PMC5355995.

Series [1] has as its target T1, Rex-His6 (Streptomyces avermitilis ATCC31267) (UniProt Q82E78).
T1 sequence: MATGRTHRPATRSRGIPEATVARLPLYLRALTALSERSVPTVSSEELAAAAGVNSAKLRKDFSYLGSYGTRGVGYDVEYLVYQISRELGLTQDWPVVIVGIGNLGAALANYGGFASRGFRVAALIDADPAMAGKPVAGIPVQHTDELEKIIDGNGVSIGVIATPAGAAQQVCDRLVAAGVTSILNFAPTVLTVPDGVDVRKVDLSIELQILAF
Briefly: EMSA. To be noted: EMSA: DIG Gel Shift Kit (Roche) binding buffer, 1 ug poly[d(I-C)] in 20 ul, 30 min at 25 C, 5% native PAGE in 0.5x TBE; footprinting: 400 ng DNA in 25 ul …. (A gel shift assay detects complexes by their altered migration in electrophoresis.)

For series [2], the target named is T1, Rex-His6 (Streptomyces avermitilis ATCC31267). Nature of the series: DNase I footprinting. To be noted: EMSA: DIG Gel Shift Kit (Roche) binding buffer, 1 ug poly[d(I-C)] in 20 ul, 30 min at 25 C, 5% native PAGE in 0.5x TBE; footprinting: 400 ng DNA in 25 ul ….

On to “GCTTCATGATCCTTCGCCAGGTGGCAGAGATCACAAACTCCTTACTTACCCCCGTGTCGCAGATCACAGACCGCCGGGCATAGGATGCGCAGCAGTTGGGCTTGTGACCTGCTTCACATGTACGCGATCTTCGTCGGGACGCACGGGGTTCGTGGGACGTGTGAGGCGGGAGTGCTCGCCCGACGCAACCTCCCCCAAGGTCTCGGCTCCGCTCGACCAGGGGGACCCCCATGCAGTCAGTGCCGACTGAGAGGAGCGAGGAGCGTGAA (double strand) [nuoA1 promoter EMSA probe]”, for which the binding result in series [1] was “binds”.
Still for that read-out and setting: the same measure for “GAGTCTCTACGTGGCGATCGAGACGGCCCGCAACACCGGCCTCCACAGAGAGCCAGAACCCCTCCTCAATCCAAAGGACCACGTCAGTCCGTCTGACGATCGGCCCTTCACTTGTTGAGGGATTCGTGAAAGCGTTCACATTCACAAGCAACCTGAATGTAATACCAAGGAGAGGTAGCAGCCATGGA (double strand) [wblE promoter EMSA probe]”: “binds”.
Take “CAGTTGCCACGGTGCTCCTGCGGGTAGCGCGGGGCTGCAGGCGGTCACACGTACCTAGACCGCCCCGTCGAAAGCAGGCTATGTCTTTGTGAACGCGTGCACAAAGATAGTGTCCGATTTGCCCGGCCAACGTGACCGGGGTCACGCGCCCCCGGCGTATGCGTATGGAACCGGCACACAGGCGCCTTCGTTCCTCACTCGACGGGGGCAAAACCGCACACACTCCTCAACGATCCACGCCCCCCGAGACCAAACCGCCCCCGATCCTAAGCGACTTTCCGGGCTGTTTGGACTACTC (double strand) [rex promoter probe]”: the binding entry in series [2] and in series [1] was “binds” in each case.
